The record followed here is patent US20180273595A1 (REGENTS OF THE UNIVERSITY OF MICHIGAN, published 2018).

*1 amine or outer side, *2 acyl side, *3 side chain or, on linkers, in order; H or OH if unused. Primed or numbered codes have the meaning given here. Where no end group is shown, it is not given here. [ ]: non-standard residue; d: D form. Y(Me) = COc1ccc(C[C@H](N[*:1])C(=O)[*:2])cc1; Pip′ = 4-methylpiperazine; βAla = NCCC(=O)O

Sequences and labels used below:
B1: 7-mer LPPYLFT capped at the N-terminus only (Ac-LPPYLFT) (peptide)
peptide: Ac-LPPYLFT-OH
notes: Variant inferred from the sentence on capping
B2: PPYL with 4-methylpiperazine (Pip) added (peptide)
peptide: [Pip′]PPYL
modifications: not fully specified
notes: also called more soluble version of 4PL-A
B3: LPPYLFT with 4-methylpiperazine (Pip) added (peptide)
peptide: LPPYLFT
modifications: not fully specified (N-terminus)
notes: also called more soluble version of EIP1
B4: biotinylated muEIP2 peptide (peptide)
peptide: LSAGSAP
modifications: also: biotin, position not given here
notes: also called biotin-muEIP2; mutant EIP2 (muEIP2)

The target of the first experiment is T1, recombinant His-tagged full-length ERG (UniProt P11308 1-479, biotinylated with NHS-PEG4 biotin for the OctetRED assays).
T1 construct: mature; Baculovirus expression in SF9 cells, Ni-NTA purified; also called wild-type ERG; wtERG; not shown: His tag
T1 sequence (looked up): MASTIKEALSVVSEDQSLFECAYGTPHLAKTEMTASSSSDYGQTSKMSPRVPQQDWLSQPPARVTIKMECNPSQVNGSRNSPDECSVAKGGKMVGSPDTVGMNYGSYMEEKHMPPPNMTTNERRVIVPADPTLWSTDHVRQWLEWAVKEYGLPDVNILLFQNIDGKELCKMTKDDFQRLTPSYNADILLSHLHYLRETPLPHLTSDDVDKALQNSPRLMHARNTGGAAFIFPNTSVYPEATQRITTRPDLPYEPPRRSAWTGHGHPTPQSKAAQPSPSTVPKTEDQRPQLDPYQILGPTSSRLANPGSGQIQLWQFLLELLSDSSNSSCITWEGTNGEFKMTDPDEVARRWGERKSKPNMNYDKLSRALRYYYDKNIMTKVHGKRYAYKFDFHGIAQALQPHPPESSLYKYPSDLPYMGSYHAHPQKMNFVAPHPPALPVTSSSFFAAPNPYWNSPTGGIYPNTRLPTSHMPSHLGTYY
The experiment in a line: Kd table of synthetic peptides on ERG; assay not given.
As usually defined, the Kd is the concentration at which binding is half-saturated. In the case of LPPYLFT [EIP1 synthetic peptide LPPYLFT], the Kd worked out at 2.8 µM.

On to H-PPYL-NH2 (also called H2N-PPYL-NH2) [4PL-N], for which the Kd worked out at 94.2 µM.

Turning to Ac-PPYL-NH2 (also called capped 4-mer peptide PPYL) [4PL-A (Ac-PPYL-NH2)], the Kd turned out to be 1.4 µM.

Consider B1, for which the Kd worked out at 2.8 µM.

For a further experiment, the target named is T1, recombinant His-tagged full-length ERG. The experiment in a line: OctetRED; Kd table of synthetic peptides on ERG.
Method: (§1) The interaction coefficients between ERG and synthetic peptides or peptidomimetics were determined by biolayer interferometry technology using the Octet Red system (ForteBio). Purified ERG and GUS proteins were biotinylated by EZLink NHS-PEG4 Biotinylation Kit (Thermo Scientific) following the manufacturer's protocol and any unincorporated biotin was removed from the reactions with Zeba 2 ml desalt columns (Thermo). Biotinylated proteins (500 μg/ml) were then incubated with super streptavidin biosensors in binding buffer (20 mM HEPES pH 7.4, 150 mM NaCl), blocked with 10 μg/ml biocytin and washed three times in binding buffer. Peptides were serially diluted in binding buffer, mixed with the protein-coupled biosensors and peptidomimetic:protein association/dissociation was monitored for 10 min at 25° C. Nonspecific binding from the signal obtained from peptidomimetic:GUS interactions was subtracted from that of peptidomimetic:ERG interactions and baseline signal drift was controlled by monitoring immobilized ERG without peptide. Octet Red analysis software was used to analyze the data.
For H-PPYLFT-NH2 (also called H2N-PPYLFT-NH2) [6PT-N], the Kd amounted to 11.5 µM.

For the molecule Ac-PPYLF-NH2 (also called Ac-PPYLF-NH2) [5PF-A], the Kd came out at 9.44 µM.

Turning to H-PPYL-NH2 (also called H2N-PPYL-NH2) [4PL-N], the Kd was greater than 100 µM.

Regarding Ac-LPPYLF-NH2 (also called Ac-LPPYLF-NH2) [6LF-A], the Kd is greater than 100 µM.

As to Ac-LPPYL-NH2 (also called Ac-LPPYL-NH2) [5LL-A], the Kd turned out to be 12.4 µM.

H-LPPYL-NH2 (also called H2N-LPPYL-NH2) [5LL-N]: the Kd turned out to be 9.6 µM.

In the case of H-PPYLF-NH2 (also called H2N-PPYLF-NH2) [5PF-N], the Kd came out at 10.2 µM.

Turning to H-PYLFT-NH2 [5PT-N (NH2-PYLFT-NH2)], the Kd came to 1.31 µM.

As for H-LPPYLF-NH2 (also called H2N-LPPYLF-NH2) [6LF-N], the Kd was determined as 4.88 µM.

Consider Ac-PYLFT-NH2 (also called Ac-PYLFT-NH2) [5PT-A], for which the Kd is 5.15 µM.

Consider Ac-PPYLFT-NH2 (also called Ac-PPYLFT-NH2) [6PT-A], for which the Kd stood at 3.64 µM.

For a further experiment the target is unchanged. The experiment in a line: OctetRED BLI.
Consider LSFGSLPGGRKKRRQRRRG [TAT-EIP2 cell-permeable peptide], for which the equilibrium dissociation constant (Kd) was 1.11 µM.

As for LPPYLFTGGRKKRRQRRRG (not fully specified, also called FITC-labeled TAT-EIP1) [TAT-EIP1 cell-permeable peptide], the Kd amounted to 0.68 µM.

A further experiment shares this target. The experiment in a line: Kd table of synthetic peptides on ERG; assay not given. This is another data set of the same source.
On to [Pip′][βAla][βAla]PPYL-NH2 (not fully specified, also called Pip-βAβA-PPYL-NH2) [4PL-Pip2], for which the dissociation constant (Kd) was found to be 3 µM.

For B2, the Kd worked out at 3.3 µM.

Consider PPYE (not fully specified) [PPYE peptide (mutation of PPYL to PPYE)], for which the binding result is “no binding”.

As to B3, the Kd came out at 1.7 µM.

The target in the next experiment is T2, TMPRSS2:ERG gene fusion product, endogenous in VCaP cells (UniProt P11308 33-479, limits assumed).
T2 construct: In cell lysates, in cells or in xenograft tumors; also called endogenous ERG; VCaP ERG
T2 sequence (looked up): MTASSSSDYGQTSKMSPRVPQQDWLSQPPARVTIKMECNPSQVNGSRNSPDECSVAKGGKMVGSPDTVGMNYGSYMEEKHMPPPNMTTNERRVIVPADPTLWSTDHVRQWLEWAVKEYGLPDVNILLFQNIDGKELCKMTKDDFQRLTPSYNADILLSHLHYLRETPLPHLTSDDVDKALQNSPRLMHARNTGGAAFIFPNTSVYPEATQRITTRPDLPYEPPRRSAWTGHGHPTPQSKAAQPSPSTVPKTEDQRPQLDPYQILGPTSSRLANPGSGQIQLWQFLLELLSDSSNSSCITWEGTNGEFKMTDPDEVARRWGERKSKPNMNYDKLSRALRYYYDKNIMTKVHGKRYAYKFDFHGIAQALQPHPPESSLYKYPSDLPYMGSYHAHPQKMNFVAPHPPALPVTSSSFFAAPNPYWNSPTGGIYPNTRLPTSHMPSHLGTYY
The experiment in a line: pull-down of VCaP lysate with biotinylated peptide, ERG immunoblot. For orientation: Immunoblotting shows a protein as a band on a membrane.
Method: Approximately 1 mg of soluble VCaP cell lysate prepared in RIPA buffer (Invitrogen) was incubated with varying amounts of biotinylated peptides for 2 hours at 4° C. HaloLink agarose beads (20 μl) were added to the peptide-lysate mixture and incubated for an additional 4 hours. Beads were then pelleted by centrifugation, washed three times in PBS-T and loaded into an SDSPAGE gel followed by Western blot analysis. Total VCaP cell lysate was loaded for positive control.
As for B4, the binding result is “no binding (tested: 20 µM)”.

The next experiment has as its target T1, recombinant His-tagged full-length ERG. The experiment in a line: OctetRED biolayer interferometry, biotinylated ERG on streptavidin sensors, peptide in solution. Background: In BLI a coated tip is dipped into the sample, and binding shifts an interference pattern.
Method: as §1
Consider LSAGSAP (Alanine substitution control) [muEIP2 synthetic peptide LSAGSAP], for which the binding result is given as “no binding (tested: 20 µM)”.

Another experiment has the same target. Nature of the experiment: OctetRED BLI, alanine substitution peptides of TAT-EIP1.
LAPYLFTGGRKKRRQRRRG (also called P^2→A) [TAT-EIP1 with P2 to A substitution]: the “fold increase in Kd against parental TAT-EIP1” value is greater than 100 fold.

Regarding LPPALFTGGRKKRRQRRRG (also called Y→A) [TAT-EIP1 with Y to A substitution], the “fold increase in Kd against parental TAT-EIP1” value is greater than 100 fold.

The next experiment has the same target. Nature of the experiment: OctetRED BLI, biotinylated ERG on streptavidin sensors.
Method: as §1
As to LPPYLFT [EIP1 synthetic peptide LPPYLFT], the Kd is 0.6 µM.

Regarding MTFGTLP [synthetic peptide MTFGTLP], the Kd was found to be 4.6 µM.

YTFGTLP [synthetic peptide YTFGTLP]: the Kd came out at 3.2 µM.

With FSASSPA [synthetic peptide FSASSPA], the dissociation constant (Kd) came to 21.1 µM.

As for LSFGSLP [EIP2 synthetic peptide LSFGSLP], the Kd came to 1.8 µM.

As for LAFGSLP [synthetic peptide LAFGSLP], the Kd is 6.4 µM.

On to LTFGSLP [synthetic peptide LTFGSLP], for which the Kd is 2.9 µM.

Take LSFGSFP [synthetic peptide LSFGSFP]: the dissociation constant Kd was 12.5 µM.

On to FSFGSLP [synthetic peptide FSFGSLP], for which the dissociation constant (Kd) was determined as 2.1 µM.

FTFGSLP [synthetic peptide FTFGSLP]: the Kd is 3.9 µM.

Take LSFGTFP [synthetic peptide LSFGTFP]: the Kd turned out to be 9.2 µM.

Regarding LRFGTLP [synthetic peptide LRFGTLP], the Kd was determined as 7.9 µM.

The next experiment has the same target. The experiment in a line: Kd table of synthetic peptides on ERG; assay not given. This is another data set of the same source.
As for LPPYLFT [EIP1 synthetic peptide LPPYLFT], the dissociation constant (Kd) was 0.972 µM.

Consider Ac-LPPDLFT-NH2 (also called Ac-LPPDLFT-NH2) [7LT-4D], for which the Kd is greater than 100 µM.

For Ac-LPPHLFT-NH2 (also called Ac-LPPHLFT-NH2) [7LT-4H], the Kd is greater than 100 µM.

Turning to Ac-LPPFLFT-NH2 (also called Ac-LPPFLFT-NH2) [7LT-4F], the Kd was greater than 100 µM.

On to Ac-LPPWLFT-NH2 (also called Ac-LPPWLFT-NH2) [7LT-4W], for which the Kd was greater than 100 µM.

Another experiment shares this target. The experiment is described as above. The source holds these as a separate data set.
Method: as §1
Regarding [Pip′]PP[Y(Me)]L-NH2 (also called Pip-PPY(Me)L-NH2) [4PL-3Y(Me)], the Kd is 15.5 µM.

Take [Pip′]PPYF-NH2 (also called Pip-PPYF-NH2) [4PL-4F]: the binding result is reported as “no binding”.

For the molecule [Pip′]PPFL-NH2 (also called Pip-PPFL-NH2) [4PL-3F], the dissociation constant Kd is 3.9 µM.

In the case of [Pip′]PPYA-NH2 (also called Pip-PPYA-NH2) [4PL-4A], the dissociation constant (Kd) came to 7.9 µM.

Take [Pip′]PPYD-NH2 (also called Pip-PPYD-NH2) [4PL-4D]: the Kd was found to be 14.8 µM.
